Data reported in publication PMC2778690.
Read-outs that look alike come from different tables or passages of the source.

Legend:
Human Bax alpha (human) [1] = target: Human Bax alpha (human) (UniProt Q07812); assay: cross-linking
Human Bax alpha (human) [2] = target: Human Bax alpha (human) (UniProt Q07812); assay: cross-linking; remark: listed apart in the source

With “Human Bax alpha (from UniProt Q07812 1-192) (natural protein)” the stoichiometry N (Human Bax alpha (human) [1]) was less than 8 and the stoichiometry N (Human Bax alpha (human) [2]) was 2.
